From US20250066499A1 (SUNSHINE GUOJIAN PHARMACEUTICAL SHANGHAI, published 2025) come the findings set out here.

Positions count from the first letter of the chain named.

For assay [1], the target named is T1, CD73-ND-K182A (human, UniProt P21589 27-317).
T1 construct: Alanine mutant of CD73-ND
T1 sequence: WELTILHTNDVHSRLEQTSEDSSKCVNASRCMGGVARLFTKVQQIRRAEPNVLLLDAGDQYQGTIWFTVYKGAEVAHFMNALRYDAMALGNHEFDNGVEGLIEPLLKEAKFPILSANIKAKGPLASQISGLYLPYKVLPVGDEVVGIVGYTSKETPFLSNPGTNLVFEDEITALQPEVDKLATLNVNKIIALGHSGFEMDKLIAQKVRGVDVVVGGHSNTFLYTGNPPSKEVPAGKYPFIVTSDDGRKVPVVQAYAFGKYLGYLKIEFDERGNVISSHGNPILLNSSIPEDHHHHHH
The assay is described as follows: ELISA, high plateau value (OD 450 nm). On the procedure: (§1) The ELISA plates were coated with SA protein diluted to 1.5 μg/mL in coating buffer (50 mM carbonate coating buffer, pH 9.6) and incubated overnight at 4° C. The supernatant was discarded, and the plates were washed three times with PBST. Then, 5% skimmed milk powder prepared with PBS was added for blocking and the plates were incubated for 2 h at 37° C. After washing the plates once with PBST, CD73-biotin protein (prepared by biotinylating CD73-His protein according to the EZ-Link NHS-Biotin Reagent instructions) was diluted to 0.5 μg/mL and added at 100 μL/well for incubation at room temperature for 1 h. The plates were washed three times with PBST, and the prepared murine-derived monoclonal antibodies against human CD73 were serially diluted with 1% BSA buffer prepared with PBST and added to the ELISA plates at 100 μl/well. The plates were incubated at 37° C. for 1 h. After washing the plates three times with PBST, HRP-labeled goat anti-mouse IgG secondary antibody was added and the plates were incubated for 30 min at 37° C. After washing the plates three times with PBST, the residual droplets were patted dry on absorbent paper as much as possible. Then, 100 μl of TMB color developing solution was added to each well, and the plates were incubated in the dark at room temperature for 5 min for color development. Subsequently, 50 μl of 2M H₂SO₄ stop solution was added to each well to terminate the substrate reaction. The OD values were read at 450 nm using a multimode microplate reader to analyze the binding ability of the tested antibodies to the target antigen human CD73-His.
(§2) Referring to the experimental method in Example 3, the affinity of 48A11-HuV33 for various mutant proteins of CD73-ND was determined. The SA protein was diluted to 1 μg/mL for coating the ELISA plates, and the biotinylated CD73 protein (CD73-biotin) was used at a concentration of 0.1 μg/mL.
(In general: An ELISA detects its analyte on a solid surface through an enzyme-linked reagent.)

Another assay has as its target T2, CD73-ND-E143A (human, UniProt P21589 27-317).
T2 construct: Alanine mutant of CD73-ND
T2 sequence: T1 sequence with E143A, A182K
Kind of assay: ELISA, biotinylated antigen on streptavidin plate. On the procedure:
as §1, §2

The next assay has as its target T3, CD73-ND-L181A (human, UniProt P21589 27-317).
T3 construct: Alanine mutant of CD73-ND
T3 sequence: T1 sequence with L181A, A182K
The assay is described as follows: ELISA, biotinylated antigen on streptavidin plate. On the procedure: as §1, §2

Another assay deals with T4, CD73-ND-T183A (human, UniProt P21589 27-317).
T4 construct: Alanine mutant of CD73-ND
T4 sequence: T1 sequence with A182K, T183A
The assay is described as follows: ELISA, biotinylated antigen on streptavidin plate. On the procedure: as §1, §2

A further assay deals with T5, CD73-ND-N185A (human, UniProt P21589 27-317).
T5 construct: Alanine mutant of CD73-ND
T5 sequence: T1 sequence with A182K, N185A
Kind of assay: ELISA, biotinylated antigen on streptavidin plate. On the procedure: as §1, §2

Another assay has as its target T6, CD73-ND-K180A (human, UniProt P21589 27-317).
T6 construct: Alanine mutant of CD73-ND
T6 sequence: T1 sequence with K180A, A182K
The assay is described as follows: ELISA, biotinylated antigen on streptavidin plate. On the procedure:
as §1, §2

For assay [2], the target named is T1, CD73-ND-K182A. The assay is described as follows: ELISA, biotinylated antigen on streptavidin plate. On the procedure: as §1, §2

B1: 48A11-HuV33 (antibody, human IgG4, V domains shown)
VH: QVQLVQSGAEVKKPGASVKVSCKASGYTFTSYWMHWVRQAPGQGLEWIGEINPSIGRTNYNEKFKSRVTLTRDTSTSTAYMELSSLRSEDTAVYYCARRVYGTMDYWGQGTLVTVSS
VL: DIQMTQSPSSLSASVGDRVTITCKASQDINSYLSWFQQKPGKSPKLLIYRANIWVDGVPSRFSGSGSGQDYTFTISSLQPEDIATYYCLQYDELYTFGQGTKVEIK
notes: Humanized
In general, EC50 refers to the concentration giving half of the maximal effect. Lower therefore signals an effect from little substance. With B1, the Top with CD73-ND-K182A [1] came out at 2.03. Besides, the concentration for a half-maximal effect (EC50) was found to be 0.167 nM in the assay with CD73-ND-E143A; 0.226 nM in the assay with CD73-ND-L181A; 0.159 nM with CD73-ND-T183A; 0.188 nM in the assay with CD73-ND-N185A; 0.321 nM with CD73-ND-K180A; 0.121 nM with CD73-ND-K182A [2].
